Test results from patent publication US20160083466A1 (Regeneron, published 2016).
Each block holds one binder with its values, some of them ahead of it.

B1: monkey IL-25 expressed with a C-terminal myc-myc-hexahistidine tag (ligand)
chain: YSHWPSCCPSKGYPSEELLRWSTVPVPPLKPASLDFHSVSCRASEDGPLNSRAISPWRYELDRDLNRLPQDLYHARCLCPHCVSLQTGSHMDPRGNSELLYHNQTVFYRRPCHGKKGNHKGYCLERRLYRVSLACVCVRPRVMGEQKLISEEDLGGEQKLISEEDLHHHHHH
B2: mouse IL-25 expressed with a C-terminal myc-myc-hexahistidine tag (ligand)
chain: VSLRIQEGCSHLPSCCPSKEQEPPEEWLKWSSASVSPPEPLSHTHHAESCRASKDGPLNSRAISPWSYELDRDLNRVPQDLYHARCLCPHCVSLQTGSHMDPLGNSVPLYHNQTVFYRRPCHGEEGTHRRYCLERRLYRVSLACVCVRPRVMAEQKLISEEDLGGEQKLISEEDLHHHHHH
B4: human IL-25 expressed with a C-terminal myc-myc-hexahistidine tag (ligand)
chain: YSHWPSCCPSKGQDTSEELLRWSTVPVPPLEPARPNRHPESCRASEDGPLNSRAISPWRYELDRDLNRLPQDLYHARCLCPHCVSLQTGSHMDPRGNSELLYHNQTVFYRRPCHGEKGTHKGYCLERRLYRVSLACVCVRPRVMGEQKLISEEDLGGEQKLISEEDLHHHHHH

Key:
[1] = molecular target: T1, human IL-25 receptor (IL-17RA/IL-17RB) on HEK293/NFκB-luc/hIL17RA/hIL17RB/hAct1 cells (human, UniProt Q96F46 33-866; Q9NRM6 18-502); experiment: cell-based or functional assay
T1 sequence (looked up) 1: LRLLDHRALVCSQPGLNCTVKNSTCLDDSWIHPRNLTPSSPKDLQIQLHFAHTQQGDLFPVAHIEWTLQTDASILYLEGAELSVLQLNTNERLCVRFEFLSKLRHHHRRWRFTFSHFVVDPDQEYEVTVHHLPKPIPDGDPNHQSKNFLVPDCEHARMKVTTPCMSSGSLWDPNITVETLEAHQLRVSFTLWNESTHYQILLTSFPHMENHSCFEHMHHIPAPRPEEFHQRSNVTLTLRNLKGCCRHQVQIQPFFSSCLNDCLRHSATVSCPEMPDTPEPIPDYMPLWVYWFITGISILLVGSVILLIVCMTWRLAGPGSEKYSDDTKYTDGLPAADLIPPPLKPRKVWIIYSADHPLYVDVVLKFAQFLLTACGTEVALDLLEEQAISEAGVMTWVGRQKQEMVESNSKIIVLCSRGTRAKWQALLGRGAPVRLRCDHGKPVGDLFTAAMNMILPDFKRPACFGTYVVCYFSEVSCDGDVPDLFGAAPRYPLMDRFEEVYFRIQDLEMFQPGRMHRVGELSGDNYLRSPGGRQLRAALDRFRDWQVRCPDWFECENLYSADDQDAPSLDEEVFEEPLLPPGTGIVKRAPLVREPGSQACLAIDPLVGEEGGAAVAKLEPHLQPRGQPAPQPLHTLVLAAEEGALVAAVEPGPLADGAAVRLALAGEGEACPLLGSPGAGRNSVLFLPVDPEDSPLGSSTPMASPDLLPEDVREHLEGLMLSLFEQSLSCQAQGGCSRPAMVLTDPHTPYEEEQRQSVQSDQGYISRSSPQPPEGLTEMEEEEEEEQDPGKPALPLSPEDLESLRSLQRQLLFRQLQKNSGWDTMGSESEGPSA
T1 sequence (looked up) 2: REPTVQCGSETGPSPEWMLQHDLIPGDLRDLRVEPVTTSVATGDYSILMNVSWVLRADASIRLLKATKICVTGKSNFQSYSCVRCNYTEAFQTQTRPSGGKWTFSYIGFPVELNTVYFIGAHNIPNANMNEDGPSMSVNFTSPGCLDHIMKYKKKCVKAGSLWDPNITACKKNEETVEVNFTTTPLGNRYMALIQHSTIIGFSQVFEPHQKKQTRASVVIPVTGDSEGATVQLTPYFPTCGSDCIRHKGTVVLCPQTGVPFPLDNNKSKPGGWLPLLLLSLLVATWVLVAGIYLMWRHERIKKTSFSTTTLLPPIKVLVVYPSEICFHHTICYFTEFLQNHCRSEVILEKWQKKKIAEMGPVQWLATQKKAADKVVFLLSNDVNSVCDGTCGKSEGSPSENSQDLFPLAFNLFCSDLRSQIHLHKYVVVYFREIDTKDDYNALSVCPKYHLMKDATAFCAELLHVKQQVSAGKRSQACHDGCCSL

[2] = molecular target: B1; experiment: SPR Biacore, antibody captured, 37C;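 for 100 nM Monkey IL-25-MMH Bound (RU): biacore 4000 surface plasmon resonance biosensor measuring binding of IL-25-MMH to purified anti-IL-25 antibodies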;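 for 100 nM Mouse IL-25-MMH Bound (RU): Real-time sensorgrams of IL-25-MMH binding to purified anti-IL-25 antibodies, rate constants obtained by fitting a 1:1 binding model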
Description: (§1) Equilibrium dissociation constants (KD values) for IL-25 binding to purified anti-IL-25 antibodies were determined using a real-time surface plasmon resonance biosensor assay on a Biacore 4000 instrument (GE Healthcare). […] All the IL-25 reagents were expressed with a C-terminal myc-myc-hexahistidine tag (referred to herein as “IL-25-MMH”). […] Kinetic association (kₐ) and dissociation (kd) rate constants were determined by fitting the real-time sensorgrams to a 1:1 binding model using Scrubber 2.0c curve fitting software.

[3] = molecular target: B4; experiment: cell-based or functional assay
[4] = molecular target: B1; experiment: cell-based or functional assay
[5] = molecular target: B2; experiment: cell-based or functional assay
[6] = molecular target: T2, rat IL-25 expressed with a C-terminal myc-myc-hexahistidine tag (rat); experiment: SPR Biacore, antibody captured, 25C;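 note: purified anti-IL-25 antibodies were tested by real-time surface plasmon resonance on a Biacore 4000, with rate constants obtained from sensorgram fits to a 1:1 binding model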
T2 construct: also called Rat IL-25-MMH
T2 chain: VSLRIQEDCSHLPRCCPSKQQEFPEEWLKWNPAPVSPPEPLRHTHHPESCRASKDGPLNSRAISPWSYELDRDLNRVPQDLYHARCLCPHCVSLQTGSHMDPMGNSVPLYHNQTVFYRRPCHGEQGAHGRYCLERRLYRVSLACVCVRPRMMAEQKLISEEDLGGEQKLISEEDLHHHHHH
Description: as §1

[7] = molecular target: B2; experiment: SPR Biacore, antibody captured, 37C;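 for 100 nM Monkey IL-25-MMH Bound (RU): biacore 4000 surface plasmon resonance biosensor measuring binding of IL-25-MMH to purified anti-IL-25 antibodies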;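 for 100 nM Mouse IL-25-MMH Bound (RU): Real-time sensorgrams of IL-25-MMH binding to purified anti-IL-25 antibodies, rate constants obtained by fitting a 1:1 binding model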
Description: as §1

[8] = molecular target: B2; experiment: SPR Biacore, antibody captured, 25C
Description: as §1

[9] = molecular target: B4; experiment: competition ELISA, 2 nM hIL-25-MMH binding to coated hIL-17RB-hFc; (*) below theoretical bottom of the assay
Description: (§2) Data analysis was performed using a sigmoidal dose-response model within Prism™ software (GraphPad). […] The absorbance values of the wells containing the highest concentration for each antibody were used to determine the percent maximum blockade.

[10] = molecular target: B4; experiment: BLI Octet, hIL-25-MMH captured on anti-Penta-His sensor, 25C
Description: Binding competition between anti-IL-25 monoclonal antibodies was determined using a real time, label-free bio-layer interferometry assay on an Octet QK384 biosensor (Pall ForteBio Corp.).
The biosensors were washed in HBST kinetics buffer in between every step of the experiment. The real-time binding response was monitored during the course of the experiment and the binding response at the end of every step was recorded.

[11] = molecular target: B4; experiment: competition ELISA, 2 nM hIL-25-MMH binding to coated hIL-17RB-hFc
Description: as §2

[12] = molecular target: T2, rat IL-25 expressed with a C-terminal …; experiment: SPR Biacore, antibody captured, 37C;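 for 100 nM Monkey IL-25-MMH Bound (RU): biacore 4000 surface plasmon resonance biosensor measuring binding of IL-25-MMH to purified anti-IL-25 antibodies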;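 for 100 nM Mouse IL-25-MMH Bound (RU): Real-time sensorgrams of IL-25-MMH binding to purified anti-IL-25 antibodies, rate constants obtained by fitting a 1:1 binding model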
[13] = molecular target: B4; experiment: cell-based or functional assay

Binder: B1
EC50, NFκB-luciferase activation of HEK293/NFκB-luc/hIL17RA/hIL17RB/hAct1 cells [1]: 0.019 nM

Binder: B2
EC50, NFκB-luciferase activation of HEK293/NFκB-luc/hIL17RA/hIL17RB/hAct1 cells [1]: 0.0084 nM

100 nM Monkey IL-25-MMH Bound (RU) [2]: 64 RU
Kd [2]: 0.104 nM
koff [2]: 5.45e-05 s⁻¹
kon [2]: 524000 M⁻¹ s⁻¹
t½ [2]: 3.53 h
IC50, luciferase reporter cells, 5 pM hIL-25-MMH [3]: 4.6e-10 M
IC50, luciferase reporter cells, 12 pM MfIL-25-MMH [4]: 2.1e-10 M
IC50, luciferase reporter cells, 10 pM mIL-25-MMH [5]: 8.8e-10 M
100 nM Rat IL-25-MMH Bound (RU) [6]: 45 RU
Kd [6]: 0.341 nM
koff [6]: 8.81e-05 s⁻¹
kon [6]: 259000 M⁻¹ s⁻¹
t½ [6]: 2.18 h
100 nM Mouse IL-25-MMH Bound (RU) [7]: 51 RU
Kd [7]: 0.243 nM
koff [7]: 8.97e-05 s⁻¹
kon [7]: 369000 M⁻¹ s⁻¹
t½ [7]: 2.15 h
100 nM Mouse IL-25-MMH Bound (RU) [8]: 40 RU
Kd [8]: 0.57 nM
koff [8]: 9.89e-05 s⁻¹
kon [8]: 174000 M⁻¹ s⁻¹
t½ [8]: 1.95 h
IC50 [9]: 0.65 nM
50 ug/mL mAb-1 Binding (nm) [10]: 1.07 nm
% Maximum blocking of 200 nM antibody [11]: 89%
100 nM Rat IL-25-MMH Bound (RU) [12]: 53 RU
Kd [12]: 0.238 nM
koff [12]: 0.000107 s⁻¹
kon [12]: 450000 M⁻¹ s⁻¹
t½ [12]: 1.8 h
IC50 values of antibodies for blocking IL-5 release from Donor #727058-059 [13]: 0.172 nM
IC50 values of antibodies for blocking IL-5 release from Donor #727060 [13]: 0.13 nM
B3: H4H10876P (antibody, human IgG4, V domains shown)
VH: QVQLVQSGAEVKKPGASVKVSCKASEYTFSNYGISWVRQAPGQGLEWLGWIGAYSGFTKYAQKVQDRITMTTDASTTTAYMELRNLRSDDTAVYYCARVGTGTDSYFDFWGQGTLVTVSS
VL: DIQMTQSPSSLSASVGDRVTITCRASQNINSHLNWYQQKPGKAPKLLIYTASSLQSGVPLRFSGSGSGTDFTLTISSLQPEDFGIYICQQTYITPLTFGGGTKVEIK
notes: H4H prefix = human IgG4 Fc

Binder: B4
EC50, NFκB-luciferase activation of HEK293/NFκB-luc/hIL17RA/hIL17RB/hAct1 cells (first assay day) [1]: 0.0029 nM
EC50, NFκB-luciferase activation of HEK293/NFκB-luc/hIL17RA/hIL17RB/hAct1 cells (second assay day) [1]: 0.016 nM
